Two proteins from ChEMBL document CHEMBL1250451, “Mechanistic insights into a Ca2+-dependent family of alpha-mannosidases in a human gut symbiont” (Nat Chem Biol, 2010) can be followed below.

Common to all, as to format: protein assay
Substrate in series [1]: O=[N+]([O-])c1ccc(O[C@H]2O[C@H](CO)[C@@H](O)[C@H](O)[C@@H]2O)cc1
The experiment in a line: (§1) Activity of Bacteroides thetaiotaomicron GH92 alpha-mannosidase 2199 E537A mutant assessed as as mannose release after 16 hrs by HPLC relative to wild type enzyme.

Substrate in series [2]: OC[C@H]1O[C@H](O[C@H]2[C@@H](O)[C@H](O)[C@@H](CO)O[C@@H]2O)[C@@H](O)[C@@H](O)[C@@H]1O
Described as §1.

Substrate in series [3]: O=[N+]([O-])c1ccc(O[C@H]2O[C@H](CO)[C@@H](O)[C@H](O)[C@@H]2O)cc1
As to the kind of experiment: (§2) Ratio of Kcat to Km for Bacteroides thetaiotaomicron GH92 alpha-mannosidase 2199 E537A mutant assessed as as mannose release after 16 hrs by HPLC relative to wild type enzyme.

Substrate in series [4]: OC[C@H]1O[C@H](O[C@H]2[C@@H](O)[C@H](O)[C@@H](CO)O[C@@H]2O)[C@@H](O)[C@@H](O)[C@@H]1O
Described as §2.

Substrate in series [5]: O=[N+]([O-])c1ccc(O[C@H]2O[C@H](CO)[C@@H](O)[C@H](O)[C@@H]2O)cc1
As to the kind of experiment: (§3) Activity of Bacteroides thetaiotaomicron GH92 alpha-mannosidase 2199 E537Q mutant assessed as as mannose release after 16 hrs by HPLC relative to wild type enzyme.

Substrate in series [6]: OC[C@H]1O[C@H](O[C@H]2[C@@H](O)[C@H](O)[C@@H](CO)O[C@@H]2O)[C@@H](O)[C@@H](O)[C@@H]1O
The series is described as §3.

Substrate in series [7]: O=[N+]([O-])c1ccc(O[C@H]2O[C@H](CO)[C@@H](O)[C@H](O)[C@@H]2O)cc1
The experiment in a line: (§4) Ratio of Kcat to Km for Bacteroides thetaiotaomicron GH92 alpha-mannosidase 2199 E537Q mutant assessed as as mannose release after 16 hrs by HPLC relative to wild type enzyme.

Substrate in series [8]: OC[C@H]1O[C@H](O[C@H]2[C@@H](O)[C@H](O)[C@@H](CO)O[C@@H]2O)[C@@H](O)[C@@H](O)[C@@H]1O
Described as §4.

B1: Alpha-1,2-mannosidase (BT_2199) (Bacteroides thetaiotaomicron), Q8A5N9 E537A (protein)
chain: MVTRLFFLSICFPFLLTSCQQSKKTVEFVDYVNPLMGTESTFAFSHGNTYPAVAVPWGMNFWSPQTGENGSGWMYTYTDSLMRGFRQTHQPSPWINDYGTFSIMPLAGELKMSHKERLVPFSHQQEKATPYNYSVTFNNGLQTSLSATSRGAVFEVSFPEKEDQYVVVDAYNGGSSITIEPEKRLVKGATRYNNGGVPDNFANYFMMEFSHPVIEYGTYNGDTLLHHQTDVAADYTCAYLKFDVPAGEKLTIRTASSFISPEQAAINFNREVADADVQLISGKAREQWNNYLGRVEAEGGTDEQLRTFYSCLYRTLLFPREFYEFDSQGNPVYYSPYDGNVHDGYMYTDNGFWDTFRAVHPLFTLLYPEVSERVTQSIINAYNESGFMPEWASPGHRGCMIGNNSVSLLVDAWMKGIQTVDAEKALEAMIHQTQARHAEIASVGRDGFEYYDKLGYVPYPEVPEATAKTLEYAYADWCIARFAESLGKQDIADQYYQKAPNYRNLYYPEHGFMWTKDAKGNWRDRFDATEWGGPFTAGSSWHWTWSVFHDPEGLSELMGGHEPMIARLDSMFVAPNTYNYGTYGFVIHEIAEMVALNMGQYAHGNQPVQHAIYLYDYIGQPWKTQYHLRNVMDKLYNSGSKGYCGDEDNGQTSAWYVFSAMGFYPVCPGMPEYAIGSPLFKKVTLHLPEGKNFVVSAADNAADRPYIRKALLNGQEFTRNYLTHDELKQGGELNLSMDSVPNQQRGTQPADFPYSYSK
As a reminder, the Km is the concentration of substrate that gives half-maximal velocity. The term kcat denotes the maximal rate divided by the concentration of active sites. The term kcat/Km denotes the second-order rate constant that governs catalysis at low substrate concentration. In the case of B1, the Km entry is “Not Active” in series [1] and 874 µM in series [2]. Besides, the turnover number (kcat) result is “Not Active” in series [1] and 0.00045 s⁻¹ in series [2]. Further, the results for the kcat/Km in series [3] and in series [4] were 0.383 M⁻¹ s⁻¹ and 0.517 M⁻¹ s⁻¹, respectively.

B2: Alpha-1,2-mannosidase (BT_2199) (Bacteroides thetaiotaomicron), Q8A5N9 E537Q (protein)
chain: MVTRLFFLSICFPFLLTSCQQSKKTVEFVDYVNPLMGTESTFAFSHGNTYPAVAVPWGMNFWSPQTGENGSGWMYTYTDSLMRGFRQTHQPSPWINDYGTFSIMPLAGELKMSHKERLVPFSHQQEKATPYNYSVTFNNGLQTSLSATSRGAVFEVSFPEKEDQYVVVDAYNGGSSITIEPEKRLVKGATRYNNGGVPDNFANYFMMEFSHPVIEYGTYNGDTLLHHQTDVAADYTCAYLKFDVPAGEKLTIRTASSFISPEQAAINFNREVADADVQLISGKAREQWNNYLGRVEAEGGTDEQLRTFYSCLYRTLLFPREFYEFDSQGNPVYYSPYDGNVHDGYMYTDNGFWDTFRAVHPLFTLLYPEVSERVTQSIINAYNESGFMPEWASPGHRGCMIGNNSVSLLVDAWMKGIQTVDAEKALEAMIHQTQARHAEIASVGRDGFEYYDKLGYVPYPEVPEATAKTLEYAYADWCIARFAESLGKQDIADQYYQKAPNYRNLYYPEHGFMWTKDAKGNWRDRFDATEWGGPFTQGSSWHWTWSVFHDPEGLSELMGGHEPMIARLDSMFVAPNTYNYGTYGFVIHEIAEMVALNMGQYAHGNQPVQHAIYLYDYIGQPWKTQYHLRNVMDKLYNSGSKGYCGDEDNGQTSAWYVFSAMGFYPVCPGMPEYAIGSPLFKKVTLHLPEGKNFVVSAADNAADRPYIRKALLNGQEFTRNYLTHDELKQGGELNLSMDSVPNQQRGTQPADFPYSYSK
With B2, the Michaelis constant (Km) in series [5] came to 3100 µM; in series [6], 571 µM. The figures for the kcat in series [5] and in series [6] were 0.06 s⁻¹ and 0.000433 s⁻¹, respectively. Also, the kcat/Km in series [7] was 19.5 M⁻¹ s⁻¹; in series [8] it was 0.767 M⁻¹ s⁻¹.
